# In article PMC10849960 (2023):
# Ends that are not written are not given here.
# T1: Mcl-1 (UniProt Q07820 1-350)
# T1 chain: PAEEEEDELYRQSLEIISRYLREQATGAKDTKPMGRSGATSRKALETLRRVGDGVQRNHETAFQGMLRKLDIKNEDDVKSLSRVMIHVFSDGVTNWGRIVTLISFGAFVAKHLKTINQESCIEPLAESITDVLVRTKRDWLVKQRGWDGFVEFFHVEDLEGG
# Columns and labels:
# [1] = molecular target: best parametrically designed PTH binder; test: split NanoBiT
# [2] = molecular target: T1, Mcl-1; test: FP
# [3] = molecular target: Hallucinated Bid binder (7 nM); test: ITC
# [4] = molecular target: 29; test: ITC
# [5] = molecular target: 411; test: ITC
# [6] = molecular target: 29; test: FP
# [7] = molecular target: 361; test: FP
# [8] = molecular target: 411; test: FP
# [9] = molecular target: 361; test: ITC; 10 °C
# [10] = molecular target: T1, Mcl-1; test: ITC
Binder,Kd [1] [nM],Kd [2] [nM],Kd [3] [nM],Kd [4] [nM],Kd [5] [nM],Kd [6] [nM],Kd [7] [nM],Kd [8] [nM],Kd [9] [nM],Kd [10] [nM]
SVSEIQLMHNLGKHLNSMERVEWLRKKLQDVHNF (also: fluorescently labelled (label and position not shown)) [parathyroid hormone (PTH)],> 1000,–,–,–,–,–,–,–,–,–
SESQEDIIRNIARHLAQVGDSMDRSIPPGLVNGL (also: fluorescently labelled (label and position not shown)) [Bid BH3 peptide],–,106,25,180,410,40,490,23,1200,770
